Experimental data: patent publication US20250215100A1 (HARBOUR BIOMED SHANGHAI, published 2025)

Columns and labels:
human CD40 protein = target: T1, human CD40 protein (human, UniProt P25942 21-193, limits assumed); experiment: BLI (Octet Red 96e), antibody captured on AHC sensor, human CD40 protein in solution, 1:1 global fit
T1 construct: the construct is not described
Method: To detect the affinity of CD40 antibodies for antigens such as human CD40 protein, the binding kinetics between antigen and antibody was analyzed using an Octet Red 96e (Fortebio) molecular interaction analyzer by biolayer interferometry (BLI) technique.
For determining the affinity of antibodies for antigens, the rotary speed of the sensor was set at 1000 rpm. […] The AHC sensors were finally regenerated by immersing in a 10 mM glycine-hydrochloric acid solution with pH 1.5 to elute the protein bound to the sensors.
For data analysis using Octet Data Analysis software (Fortebio, version 11.0), 0 nM well was used as the reference well, reference subtraction was performed, “1:1 Global fitting” method was selected for data fitting, the kinetic parameters of the binding of the antigen to the CD40 antibodies were calculated, and the kon (1/Ms) value, kdis (1/s) value and KD (M) value were obtained.

human CD40 on cells [1] = target: T2, human CD40 on cells (human, UniProt P25942 21-277); experiment: FACS, Raji cells
T2 construct: whole, on cells; The cell line used is named in each row's assay; also called hCD40; TNFRSF5
How it was run: (§1)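 Antibody binding to CHO-K1/hCD40, CHO-K1/cyCD40 or Raji cells, 8 concentrations, 5-fold dilutions from 300 nM final, 1 h at 4° C. in the dark. Detection with Alexa Fluor 488 anti-human IgG, flow cytometry; EC50 from four-parameter nonlinear fit; hIgG negative control.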

human CD40 on cells [2] = target: T2, human CD40 on cells; experiment: cell-based or functional assay
human CD40 on cells [3] = target: T2, human CD40 on cells; experiment: FACS, CHO-K1/hCD40 cells
How it was run: as §1

human CD40 on cells [4] = target: T2, human CD40 on cells; experiment: FACS, inhibition of human CD40L-his binding to CHO-K1/hCD40 cells
Method: To detect the effect of CD40 antibodies on the binding of CD40 to CD40L, CHO-K1/hCD40 cells were plated at 2×10⁵/well or 100 μL/well into a 96-well plate (Corning, #3799) and centrifuged, and the supernatant was taken and the dilution solution of the antigen binding protein to be tested was added at 50 μL/well with an initial concentration of 500 nM, 5-fold concentration dilution and a total of 8 concentrations. 20 μg/mL of human CD40L-his protein (Sino biological, #10239-H08E) was added at 50 μL/well, the cells were incubated at 4° C. for 1 hour and then washed 3 times with FACS buffer (1×PBS with 2% FBS). 1:400 diluted anti-histidine tag secondary antibody (GenScript, #A01800) was added, and the cells were incubated at 4° C. for 1 hour, then washed 2 times with FACS buffer, and resuspended in pre-chilled PBS. The fluorescence signal values were read using a BD FACS CANTOII flow cytometer or ACEA NovoCyte flow cytometer, and the data were processed and analyzed using FlowJo v10 software (FlowJo, LLC).
Data processing and graphical analysis were performed using GraphPad Prism 8 software. The curve of the antibody concentration-dependent inhibition rate and parameters, such as IC50 value were obtained by four-parameter nonlinear fitting.

[5] = target: T3, cynomolgus monkey CD40 on cells (cynomolgus monkey, UniProt G7PG38 21-278); experiment: FACS, CHO-K1/cyCD40 cells
T3 construct: also called cyCD40; CHO-K1/cyCD40
How it was run: as §1

T2 sequence (P25942 21-277): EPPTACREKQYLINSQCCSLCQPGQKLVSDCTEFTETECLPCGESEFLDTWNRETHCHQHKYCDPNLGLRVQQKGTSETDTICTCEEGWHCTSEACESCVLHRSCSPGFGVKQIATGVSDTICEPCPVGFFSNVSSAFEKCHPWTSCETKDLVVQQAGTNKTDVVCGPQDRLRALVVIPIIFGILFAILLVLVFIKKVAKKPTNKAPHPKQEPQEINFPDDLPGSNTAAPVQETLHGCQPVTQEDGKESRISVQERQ
T3 sequence (G7PG38 entry or part of it limits assumed): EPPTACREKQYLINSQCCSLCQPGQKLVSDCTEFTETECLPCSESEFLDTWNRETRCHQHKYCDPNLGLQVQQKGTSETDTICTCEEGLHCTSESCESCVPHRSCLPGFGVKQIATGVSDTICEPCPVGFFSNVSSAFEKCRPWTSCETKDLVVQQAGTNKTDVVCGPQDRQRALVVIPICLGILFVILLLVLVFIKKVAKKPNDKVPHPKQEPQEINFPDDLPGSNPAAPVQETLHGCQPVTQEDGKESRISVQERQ
T1 sequence (P25942 21-193 limits assumed): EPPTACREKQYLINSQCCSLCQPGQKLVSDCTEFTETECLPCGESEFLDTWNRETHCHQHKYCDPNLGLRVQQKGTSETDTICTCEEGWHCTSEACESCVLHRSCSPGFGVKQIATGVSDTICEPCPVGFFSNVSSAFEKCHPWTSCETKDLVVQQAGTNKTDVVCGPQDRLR

| Kd (human CD40 protein) [pM] | koff (human CD40 protein) [s⁻¹] | kon (human CD40 protein) [M⁻¹ s⁻¹] | EC50 (human CD40 on cells [1]) [pM] | Maximum MFI (human CD40 on cells [1]) [MFI] | EC50 (nM), crosslinked (CHO-K1/hCD32B), HEK293-hCD40-NFkB reporter (human CD40 on cells [2]) [nM] | EC50 (nM), uncrosslinked, HEK293-hCD40-NFkB reporter (human CD40 on cells [2]) [nM] | Maximum RLU, crosslinked (CHO-K1/hCD32B), HEK293-hCD40-NFkB reporter (human CD40 on cells [2]) [RLU] | Maximum RLU, uncrosslinked, HEK293-hCD40-NFkB reporter (human CD40 on cells [2]) [RLU] | RLU fold (crosslinked/uncrosslinked) (human CD40 on cells [2]) [fold] | EC50 (human CD40 on cells [3]) [pM] | Maximum MFI (human CD40 on cells [3]) [MFI] | IC50 (human CD40 on cells [4]) [pM] | Maximum inhibition rate (%) (human CD40 on cells [4]) | EC50 [5] [pM] | Maximum MFI [5] [MFI] | Binder |
| --- | --- | --- | --- | --- | --- | --- | --- | --- | --- | --- | --- | --- | --- | --- | --- | --- |
| 138 | 0.000144 | 1.04e+06 | 69.9 | 3700 | 0.178 | 0.369 | 19700 | 8250 | 2.38 | 6340 | 81600 | 17000 | 41.9 | 3880 | 117000 | PR003379 (antibody, human IgG2, kappa, Fully human recombinant IgG2, kappa light chain; from Harbour H2L2 mice; also called 18C4A12-1B1 (clone No.)) heavy: QVQLVQSGAEVKKPGASVKVSCKASGYTFAGYYMYWVRQAPGQGLEWMGWINPDSGAPTYAQKFQGRVTMTRDTSISTAYMELSRLRSDDTAVYYCAREKIYYGSGNYYPSFDYWGQGTLVTVSSASTKGPSVFPLAPCSRSTSESTAALGCLVKDYFPEPVTVSWNSGALTSGVHTFPAVLQSSGLYSLSSVVTVPSSNFGTQTYTCNVDHKPSNTKVDKTVERKCCVECPPCPAPPVAGPSVFLFPPKPKDTLMISRTPEVTCVVVDVSHEDPEVQFNWYVDGVEVHNAKTKPREEQFNSTFRVVSVLTVVHQDWLNGKEYKCKVSNKGLPAPIEKTISKTKGQPREPQVYTLPPSREEMTKNQVSLTCLVKGFYPSDIAVEWESNGQPENNYKTTPPMLDSDGSFFLYSKLTVDKSRWQQGNVFSCSVMHEALHNHYTQKSLSLSPGK light: DIQLTQSPSFLSASVGDRVTITCRASQGISSYLAWYQQKPGKAPKLLIYAASTLQSGVPSRFSGSGSGTEFTLTISSLQPEDFATYYCQQLNSYPWTFGQGTKVEIKRTVAAPSVFIFPPSDEQLKSGTASVVCLLNNFYPREAKVQWKVDNALQSGNSQESVTEQDSKDSTYSLSSTLTLSKADYEKHKVYACEVTHQGLSSPVTKSFNRGEC |
| 525 | 0.00057 | 1.09e+06 | 28 | 614 | 0.0506 | 0.0371 | 22600 | 20000 | 1.13 | 12200 | 29200 | 4400 | 24 | 5540 | 39700 | PR001306 (CDX-1140) (antibody, human IgG2, kappa, V domains shown, CD40 positive control antibody) VH: QVQLVESGGGVVQPGKSLRLSCAASGFTFSSNGIHWVRQAPGKGLEWVAVIWSDGSNKFYADSVKGRFTISRDNSKNTLYLQMNSLRAEDTAVYYCARASGSGSYYNFFDYWGQGTLVTVSS VL: EIVMTQSPATLSVSPGERATLSCRASQSVRSNLAWYQQKPGQAPRLLIYGASTRATGIPARFSGSGSGTEFTLTINSLQSEDFAVYYCQQHNKWITFGQGTRLEIKR |
